*1 amine or outer side, *2 acyl side, *3 side chain or, on linkers, in order; H or OH if unused. Side-chain parts run from the residue outwards. [ ]: non-standard residue; d: D form. The star is where a group is joined. TTDS = 1,13-diamino-4,7,10-trioxatridecan-succinic acid spacer arm, O=C(CCC(=O)[*:2])NCCCOCCOCCOCCCN[*:1]; PEG5000 = COCH2CH2NH(CH2CH2O)nMe, about 5000 g/mol; γGlu = O=C(O)[C@H](CCC(=O)[*:2])N[*:1]; Arg(Me) = CNC(=N)NCCC[C@H](N)C(=O)O; Palmitoyl = CCCCCCCCCCCCCCCC(=O)*
B1: peptide compound C5, Ac-Tyr-Asn-Trp-Asn-Ser-PheΨ[Tz]GlyΨ[Tz]Leu-Arg-Tyr-NH2 (peptide)
peptide: Ac-YNWNSFGLRY-NH2
modifications: also: Phe6-Gly7 and Gly7-Leu8 peptide bonds replaced by 1,4-disubstituted 1,2,3-triazoles

target: T1, human KISS1R receptor (human, UniProt Q969F8 1-398); assay: cell-based or functional assay
T1 sequence (Q969F8 whole entry): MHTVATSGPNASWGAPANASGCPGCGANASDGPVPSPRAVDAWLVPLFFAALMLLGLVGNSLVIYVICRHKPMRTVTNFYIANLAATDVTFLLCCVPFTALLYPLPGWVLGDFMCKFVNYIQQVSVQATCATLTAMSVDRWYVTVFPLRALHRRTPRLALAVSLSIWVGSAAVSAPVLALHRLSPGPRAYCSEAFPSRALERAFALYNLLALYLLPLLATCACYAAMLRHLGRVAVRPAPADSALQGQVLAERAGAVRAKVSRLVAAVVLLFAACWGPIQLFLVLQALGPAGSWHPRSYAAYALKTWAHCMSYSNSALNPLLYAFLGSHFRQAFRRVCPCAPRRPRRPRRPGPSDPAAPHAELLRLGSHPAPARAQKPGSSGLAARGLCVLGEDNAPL

Row | Molecule | EC50 (nM), intracellular calcium mobilization of cells expressing human KISS1R [nM]
1 | Ac-YK([γGlu-Palmitoyl])WNSFGLRY-NH2 (also: Gly7-Leu8 peptide bond replaced by 1,4-disubstituted 1,2,3-triazole) [peptide compound C8, Ac-Tyr-Lys(γ-(N-hexadecanoyl-Glu-OH))-Trp-Asn-Ser-Phe-GlyΨ[Tz]Leu-Arg-Tyr-NH2] | 1.38
2 | {Palmitoyl-γGlu}-YNWNSFGLRY-NH2 (also: Gly7-Leu8 peptide bond replaced by 1,4-disubstituted 1,2,3-triazole) [peptide compound C9, γ-(N-hexadecanoyl-Glu-OH)-Tyr-Asn-Trp-Asn-Ser-Phe-GlyΨ[Tz]Leu-Arg-Tyr-NH2] | < 0.001
3 | Ac-YNK([γGlu-Palmitoyl])NSFGLRY-NH2 (also: Gly7-Leu8 peptide bond replaced by 1,4-disubstituted 1,2,3-triazole) [peptide compound C11, Ac-Tyr-Asn-Lys(γ-(N-hexadecanoyl-Glu-OH))-Asn-Ser-Phe-GlyΨ[Tz]Leu-Arg-Tyr-NH2] | 90
4 | {Palmitoyl-γGlu}-YNWNSFGL[Arg(Me)]Y-NH2 (also: Gly7-Leu8 peptide bond replaced by 1,4-disubstituted 1,2,3-triazole) [peptide compound C12, γ-(N-hexadecanoyl-Glu-OH)Tyr-Asn-Trp-Asn-Ser-Phe-GlyΨ[Tz]Leu-Arg(Me)-Tyr-NH2] | < 0.001
5 | Ac-YK([TTDS-γGlu-Palmitoyl])WNSFGLRY-NH2 (also: Gly7-Leu8 peptide bond replaced by 1,4-disubstituted 1,2,3-triazole) | 0.079
6 | Ac-YK(2‑(succinamido)‑6‑(4-(4-iodophenyl)butanamido)hexanoate)WNSFGLRY-NH2 (also: Gly7-Leu8 peptide bond replaced by 1,4-disubstituted 1,2,3-triazole) | 0.001
7 | Ac-YK(PEG5000)WNSFGLRY-NH2 (also: Gly7-Leu8 peptide bond replaced by 1,4-disubstituted 1,2,3-triazole) [peptide compound C16, Ac-Tyr-Lys(PEG5000)-Trp-Asn-Ser-Phe-GlyΨ[Tz]Leu-Arg-Tyr-NH2] | 4.17

target: T1, human KISS1R receptor; assay: cell-based or functional assay; remark: another data set of the same source

Row | Molecule | EC50 (nM), intracellular calcium mobilization of cells expressing human KISS1R [nM]
8 | H-YNWNSFGLRY-NH2 [comparative peptide compound Comp.1 (mKP10), H-Tyr-Asn-Trp-Asn-Ser-Phe-Gly-Leu-Arg-Tyr-NH2] | 2.9
9 | Ac-YNWNSFGLRY-NH2 [peptide compound Comp.3, Ac-Tyr-Asn-Trp-Asn-Ser-Phe-Gly-Leu-Arg-Tyr-NH2] | 0.1
10 | H-YNWNSFGLRY-NH2 (also: Gly7-Leu8 peptide bond replaced by 1,4-disubstituted 1,2,3-triazole) [peptide compound C1, H-Tyr-Asn-Trp-Asn-Ser-Phe-GlyΨ[Tz]Leu-Arg-Tyr-NH2] | 0.5
11 | Ac-YNWNSFGLRY-NH2 (also: Gly7-Leu8 peptide bond replaced by 1,4-disubstituted 1,2,3-triazole) [peptide compound C2, Ac-Tyr-Asn-Trp-Asn-Ser-Phe-GlyΨ[Tz]Leu-Arg-Tyr-NH2] | 0.029
12 | Ac-YNWNSFGL[Arg(Me)]Y-NH2 (also: Gly7-Leu8 peptide bond replaced by 1,4-disubstituted 1,2,3-triazole) [peptide compound C3, Ac-Tyr-Asn-Trp-Asn-Ser-Phe-GlyΨ[Tz]Leu-Arg(Me)-Tyr-NH2] | 0.014
13 | Ac-YNK(Ac)NSFGL[Arg(Me)]Y-NH2 (also: Gly7-Leu8 peptide bond replaced by 1,4-disubstituted 1,2,3-triazole) [peptide compound C4, Ac-Tyr-Asn-Lys(Ac)-Asn-Ser-Phe-GlyΨ[Tz]Leu-Arg(Me)-Tyr-NH2] | 0.011
14 | B1 | 44

target: T1, human KISS1R receptor; assay: cell-based or functional assay; remark: another data set of the same source

Row | Molecule | EC50 (nM), intracellular calcium mobilization of cells expressing human KISS1R [nM]
15 | peptide compound C7, Ac-DTyr-Hyp-Asn-Thr-Phe-GlyΨ[Tz]Leu-Arg(Me)-Trp-NH2 | 0.014
16 | peptide compound C6, Ac-DTyr-DTrp-Asn-Thr-Phe-GlyΨ[Tz]Leu-Arg(Me)-Trp-NH2 | 0.01

— patent publication US20150361138A1 (INSTITUT NATIONAL DE LA RECHERCHE AGRONOMIQUE, published 2015)
